According to the supplement of paper PMC9170038:

Test system: MS2 coat protein
Test: apparent KD of MS2 coat protein; higher = weaker reporter binding
Conditions: Eterna round: R107
Method in brief: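 In 100 mM Tris-HCl pH 7.5 with 80 mM KCl and 4 mM MgCl2, and without or with constant ligand, SNAP-549-labelled MS2 coat protein was titrated in twofold steps from 0.7 or 1.5 nM to 3 µM. Per-step times went from 0.8–1.5 h down to 10–20 min. The RNA switches were transcribed on-chip from Illumina sequencing clusters, and apparent KD is the per-design median of normalised cluster binding-curve fits.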

[1] = input ligand: theophylline 20 uM
[2] = input ligand: theophylline 2 mM
[3] = input ligand: tryptophan 2.4 mM

Sequence	apparent KD of MS2 coat protein (input ligand: arginine 13.2 mM)	apparent KD of MS2 coat protein (input ligand: none)	apparent KD of MS2 coat protein [1]	apparent KD of MS2 coat protein [2]	apparent KD of MS2 coat protein [3]
UGUAUGUGAUUUGAUACCAGACCAGCGGGUGUUACUUGAGGAACACCCAAGUAGGUUUGGGUCCCUUGGCAGCAAAUCGCAUACU [SS Theo B #24 Ms9]	0.452 µM	0.0392 µM	0.309 µM	1.41 µM	0.079 µM
CUUCAACAUGAGGAUCACCCAUGUAGUGAUACCAGUCACUCAUACGACCCUUGGCAGCACAUUUUCUGUCGGCAUGUAGACGAUC [theeternabot_sameState_MS2_Theo_A_33]	0.0736 µM		0.172 µM		0.173 µM
UUAAUCAUUAUAGAAAACUAUAAUGCAGAAGGAGCGUGAUAAAACACAGGUAGGUCGCUGAAGGGAACAUGAGGAUCACCCAUGU [AstrosSSArgA#6]	0.0213 µM	0.0303 µM	0.0378 µM	0.0394 µM	0.0288 µM
UGUAUGUGAUUUGAUACCAGACCAGCUGGUGGUACAUGAGCAUCAGCCAUGUAGGUUUGGGUCCCUUGGCAGCAAAUCGCAUACU [SS Theo B #24 Ms2]	0.0207 µM	0.021 µM	0.0287 µM	0.0193 µM	0.0214 µM
CGAGUCCGCUGAUGGGCUAAGUCAGGUGAUACCAGCCACUCCCGCGGCCCUUGGCAGCACAUGAGGAUCACCCAUGUAGGGCUUG [Iserbele]	0.0192 µM		0.0511 µM		0.0231 µM
AAAUAAAUACAUGAGGAUCACCCAUGUGAAGGAGCGCCCGUUAGGGCAGGUAGGUCGCACAUGAAUAACUCCGCGCGAAAGCGCA [MAT - Exclusion Arginine A - Mod of Eli - D10]	0.0418 µM	0.0387 µM	0.0371 µM	0.0526 µM	0.0358 µM
UGGGCAUACAUGAGGAUCACCCAUGUAGAUACCAGCACUAGCCUGUGCCCUUGGCAGCUAACCGGGUCGAGAACUUAGUGCUCCU [Lexele]	0.0109 µM		0.0219 µM		0.0115 µM
GUAAUGAUAAGAAGGAGCGUCGAAAAUGGGUAAACAUGAGGAUCACCCAUGUAAAGGGAACGACAGGUAGGUCGCUUAUUAUUAC [AstromonsSSArgB#21]	0.127 µM	0.207 µM	0.356 µM	0.203 µM	0.21 µM
AGGUACAGCAGGUGAUUCUGGCUGUACCAACGAGGACCGGUACGGCCGCCACUCGAAUAAACAUGAGGAUCACCCAUGUACAAAU [T''-M-T'-T-MS2 - Design 7]	0.0203 µM		0.0413 µM	0.0319 µM	
GCUACAUGAGGAUCACCCAUGUAUGCGAGUCGAGGACCGGUACGGCCGCCACUCGCUUAACAUGAGGAUCACCCAUGUUACUCGC [SSTA DOUBLE!!! :-D #19]	0.056 µM		0.106 µM	0.0887 µM	
UAGCGAUAAUCUGAUACCAGACGUGUGCUCUCCUCAGACAUGAGGAUCACCCAUGUAUGCGUCCCUUGGCAGCAGAGUGAGGAGA [Theo B Ex t5]	0.0196 µM	0.0196 µM	0.0268 µM	0.115 µM	0.0186 µM
CAUUAAUUACGAAGGAGCGUCGAGAAUGGGUAAACAUGAGGAUCACCCAUGUGAAGGGAACGGCAGGUAGGUCGCGUAAUUAAUG [#22 Same State - Arginine B]	0.105 µM	0.0972 µM	0.116 µM	0.0751 µM	0.0605 µM
ACGAACUGUAGUGAUACCAGACGUACAUGAGGAUCACCCAUGUUGUAAACAUGGUUAAUAGUCCCUUGGCAGCACAGUUAGUUCG [JR_ExcTheophyB_Sub002]	0.105 µM		0.612 µM		0.695 µM
ACGAUACGACAUGAGGAUCACCCAUGUGAUACCAGCCUGGAAACAGGCCCUUGGCAGCACAAAUACUCCAGAAACGUAUCGAAAA [MAT - Exclusion Theophlline A - Mod of Eli - D6]	0.0649 µM		0.262 µM		0.156 µM
AAAUAAAUACAUGAGGAUCACCCAUGUGAAGGAGCGCCCGUUAGGGCAGGUAGGUCGCACAUGAACUCCAAGCGAAAGAAAUAAU [ArgEX 16 #OpenEnded]	0.0236 µM	0.0183 µM	0.0239 µM	0.0227 µM	0.0164 µM
AAUAACAUGAGGAUCACCCAUGUAAAAGAUACCAGAUGCAUGAUGAUCCCUUGGCAGCUUAACGCUGAUUGAUUACAAUCAGCGA	0.0365 µM		0.128 µM		0.0264 µM
AUAAAUAAGGCGGCCGCCACUAAUAUAUUAAUAUUUUAUAUCCGACAUGAGGAUCACCCAUGUGGUAGGACCGGGCCAAUAAUUA [Same State - Tryptophan B]	0.0204 µM		0.0434 µM	0.025 µM	
AGAUGUAGCGGAAGGAGCGACUUGAGGAUCACCCAAGUCUCCCGUUGUGGGAGUUCCUUAGGUCAGGUAGGUCGCCGUUACGUCA [Omei Arg B SS B v3]	0.0316 µM	0.145 µM	0.154 µM	0.31 µM	0.0828 µM
CUAAUUAAAUCGGCCGCCACUUACUCAUGAGGUAACAACAUGAGGAUCACCCAUGUUUGAGGAUCAAGGACCGGGAUUUAAUUAG [AstrosSSTry#23]	0.0249 µM		0.0337 µM	0.0301 µM	

Sequence	apparent KD of MS2 coat protein (input ligand: arginine 13.2 mM)	apparent KD of MS2 coat protein (input ligand: none)	apparent KD of MS2 coat protein [1]	apparent KD of MS2 coat protein [2]	apparent KD of MS2 coat protein [3]
AAUUAUCAGUCGGCCGCCACUGACACAUGAGGAUCACCCAUGUAACUUGGGAUAAAUUUAAUAAACAGGACCGGGACAAAGGCUA [JR_ExcTryptoB_Sub011]	0.0366 µM		0.0507 µM	0.0499 µM	
GUGGGACAUGAGGAUCACCCAUGUGACGAUACCAGUCAAUUGAUGGACCCUUGGCAGCGUUGGUAUUGCGGGUAGGCGAGAUAAG [theeternabot_sameState_MS2_Theo_A_3]	0.0214 µM		0.0602 µM		0.0404 µM
UCACAUGAGGAUCACCCAUGUACAGGCGAUACCAGCCGUACAUUGGGCCCUUGGCAGCGCACCGAGACCUUUUAAAGCACUUCGG [Er]	0.0335 µM		0.103 µM		0.0347 µM
UUAAAGGCACCUCAUGGGACUAUAAACCCGCGAGGACCGGUACGGCCGCCACUCGAAUAUCAACAUGAGGAUCACCCAUGUGGUU [theeternabot_exclusion_MS2_Trp_A_6]	0.0162 µM		0.0323 µM	0.0296 µM	
CCUAGCACACAUGAUACCAGCGACAUGAGGAUCACCCAUGUACGGCGUGUAUCGCAAGGUUGCCCUUGGCAGCAUGAUAGUGCUG [Xeerdi]	0.0127 µM		0.0247 µM		0.0142 µM
AUCGUACCUGAUGAUACCAGCAUGUGAUCGUAACAUGAGGAUCACCCAUGUAAUCAGUGAUGCCCUUGGCAGCAUGAUCGGUACA [Same State - Theophylline B (Freestyle 14)]	0.0792 µM		0.127 µM		0.0949 µM
GCCAUCGGCGAAAGCCGAUGGUAUACAGAAGGAGCGCACGAAAGUGCAGGUAGGUCGCUGAACAUGAGGAUCACCCAUGUAAUAA [#29 Same State - Arginine A]	0.0196 µM	0.0202 µM	0.0249 µM	0.0229 µM	0.0194 µM
GCACAAGAUGGAAGGAGCGCUGGUAAAAGUCACAUGAGGAUCACCCAUGUGCUCCUUGCCGAGCAGGUAGGUCGCCAUCUUGUGC [SSAB NP+V+V2 #4]	0.0195 µM	0.0278 µM	0.0318 µM	0.0332 µM	0.0298 µM
UGUAUGUGAUCUGAUACCAGAGUGACGCGAAAGCGACCUGAGGAUCACCCUGGUAAAUAACUCCCUUGGCAGCAGAUCGCAUACU	0.0438 µM	0.045 µM	0.0366 µM	0.0178 µM	0.0483 µM
GUAUACAUGAGGAUCACCCAUGUACCAGAAGGAGCGCUGGAAACAGCAGGUAGGUCGCUGGUAGGUCCUCUAUCUAGACGUUCUA [EAA NP+V+V2 #5]	0.0281 µM	0.176 µM	0.214 µM	0.195 µM	0.079 µM
CUUGUCGUAACUGAUACCAGUGUACUGACAUGAGGAUCACCCAUGUUGGGUUUUGUUGUACACCCUUGGCAGCAGAAUCGAUAAG [AstrosExyTheB#9]	0.0688 µM		0.0953 µM		0.0713 µM
CGAGUAAGAACAAUCGAAUAACGGUUUUCGCGAGGACCGGUACGGCCGCCACUCGUGUGAAAUAACACAUGAGGAUCACCCAUGU [3'end-1]	0.0237 µM		0.0268 µM	0.0273 µM	
ACAUGAGGAUCACCCAUGUAGCGUAGGGAAGGAGCGGAAUAGAGUCCAGGUAGGUCGCCCAUAUGAUGAUCUCACUUAUUAUCGA [#13 Same State - Arginine A]	0.0391 µM	0.0211 µM	0.0367 µM	0.0408 µM	0.0229 µM
AGCCGUACGUACGGAAACGUACGUACGGCACGAGGACCGGUACGGCCGCCACUCGCCCACAUGAGGAUCACCCAUGUAGUGGGUG [The One Line]	0.0234 µM	0.0437 µM	0.0582 µM	0.0534 µM	0.103 µM
ACGUGGAAAAUUUGUGGUGCUGCCUCAGGCCGAGGACCGGUACGGCCGCCACUCGUACAUGAGGAUCACCCAUGUCGAGUCACUG [Isanso]	0.0192 µM		0.048 µM	0.0474 µM	
AUGGUUGUCGCGGCCGCCACUGUCGGCCGCCACUAAACAUGAGGAUCACCCAUGUAGGACCGGGACAGGACCGGGUGAUAACCAC [TryBS - #DoubleAptamer 3]	0.0241 µM	0.0259 µM	0.0339 µM	0.0332 µM	0.0143 µM
UUCAGCUAGUCGGCCGCCACUACAAGAGGAUCACCCUUGUAGGUCCACACUGCUUCGGCAGUGAGUAGGACCGGGACUAGCUGAG	0.0109 µM	0.0113 µM	0.0131 µM	0.0137 µM	0.0177 µM
GCUACACAGGACCGUACUAAGGAUUCGCCUCGAGGACCGGUACGGCCGCCACUCGUUGCGCGACAUGAGGAUCACCCAUGUGUUC [theeternabot_exclusion_MS2_Trp_A_33]	0.0311 µM		0.0483 µM	0.0507 µM	
AGCCCUGUGCUAGAUACCAGCUACAUGAGGAUCACCCAUGUGCGUCAGAAAUGACUGUGUAGCCCUUGGCAGCUAAAUGCAUGUA [Exclusion - Theophylline B (Freestyle 7)]	0.0138 µM		0.0165 µM		0.011 µM
